Measured values reported in patent US20050282743A1, “Molecular interactions in cells” (Arbor Vita Corporation, priority 2001, published 2005).
Ends that are not written are not given here. * marks the point of attachment. Biotin = O=C1N[C@H]2[C@H](CS[C@H]2CCCCC(=O)*)N1

Assays:
Test in all cases: G' assay (10 uM PL peptide), results of TABLE 7 and TABLE 12
Assay type in all cases: binding
[1] = target: T1, PDZ protein (GST-PDZ fusion) (Homo sapiens, UniProt Q14168); details: PDZ MPP2, PDZ Domain 1
T1 construct: made in house; host or cells: E. coli (DH5alpha, BL21 or JM109)
T1 sequence (Q14168 1-576): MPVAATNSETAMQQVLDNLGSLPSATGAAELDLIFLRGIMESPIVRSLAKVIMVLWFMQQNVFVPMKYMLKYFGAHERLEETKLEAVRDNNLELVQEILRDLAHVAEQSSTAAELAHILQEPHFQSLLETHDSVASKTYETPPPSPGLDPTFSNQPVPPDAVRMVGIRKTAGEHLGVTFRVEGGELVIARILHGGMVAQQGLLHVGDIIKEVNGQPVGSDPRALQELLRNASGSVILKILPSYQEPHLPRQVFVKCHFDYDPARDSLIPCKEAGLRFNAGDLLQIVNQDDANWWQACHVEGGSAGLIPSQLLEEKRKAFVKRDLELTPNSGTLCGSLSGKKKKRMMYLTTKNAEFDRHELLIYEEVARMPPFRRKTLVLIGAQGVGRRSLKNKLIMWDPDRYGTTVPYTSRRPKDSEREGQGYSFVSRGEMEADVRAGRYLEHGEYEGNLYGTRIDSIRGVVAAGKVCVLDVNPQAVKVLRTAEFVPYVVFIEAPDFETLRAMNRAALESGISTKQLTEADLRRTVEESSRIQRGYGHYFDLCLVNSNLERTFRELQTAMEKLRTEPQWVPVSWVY
How it was run: (§1)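 Biotinylated PL peptides at 10 uM (vs 20 uM in G^0 assay) bound to GST-PDZ fusions; PDZ protein at 5 ug/ml unless another concentration listed. Bound peptide read as A450 nm, classified 0–5 (0 = A450 0; 5 = A450 >4 repeated).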

[2] = tested on: PDZ protein (GST-PDZ fusion); details: PDZ HEMBA 1003117, PDZ Domain 1
How it was run: as §1

[3] = target: T2, PDZ protein (GST-PDZ fusion) (Homo sapiens, UniProt Q9BXL6); details: PDZ CARD14, PDZ Domain 1
T2 construct: made in house; host or cells: E. coli (DH5alpha, BL21 or JM109)
T2 sequence (Q9BXL6 1-1004): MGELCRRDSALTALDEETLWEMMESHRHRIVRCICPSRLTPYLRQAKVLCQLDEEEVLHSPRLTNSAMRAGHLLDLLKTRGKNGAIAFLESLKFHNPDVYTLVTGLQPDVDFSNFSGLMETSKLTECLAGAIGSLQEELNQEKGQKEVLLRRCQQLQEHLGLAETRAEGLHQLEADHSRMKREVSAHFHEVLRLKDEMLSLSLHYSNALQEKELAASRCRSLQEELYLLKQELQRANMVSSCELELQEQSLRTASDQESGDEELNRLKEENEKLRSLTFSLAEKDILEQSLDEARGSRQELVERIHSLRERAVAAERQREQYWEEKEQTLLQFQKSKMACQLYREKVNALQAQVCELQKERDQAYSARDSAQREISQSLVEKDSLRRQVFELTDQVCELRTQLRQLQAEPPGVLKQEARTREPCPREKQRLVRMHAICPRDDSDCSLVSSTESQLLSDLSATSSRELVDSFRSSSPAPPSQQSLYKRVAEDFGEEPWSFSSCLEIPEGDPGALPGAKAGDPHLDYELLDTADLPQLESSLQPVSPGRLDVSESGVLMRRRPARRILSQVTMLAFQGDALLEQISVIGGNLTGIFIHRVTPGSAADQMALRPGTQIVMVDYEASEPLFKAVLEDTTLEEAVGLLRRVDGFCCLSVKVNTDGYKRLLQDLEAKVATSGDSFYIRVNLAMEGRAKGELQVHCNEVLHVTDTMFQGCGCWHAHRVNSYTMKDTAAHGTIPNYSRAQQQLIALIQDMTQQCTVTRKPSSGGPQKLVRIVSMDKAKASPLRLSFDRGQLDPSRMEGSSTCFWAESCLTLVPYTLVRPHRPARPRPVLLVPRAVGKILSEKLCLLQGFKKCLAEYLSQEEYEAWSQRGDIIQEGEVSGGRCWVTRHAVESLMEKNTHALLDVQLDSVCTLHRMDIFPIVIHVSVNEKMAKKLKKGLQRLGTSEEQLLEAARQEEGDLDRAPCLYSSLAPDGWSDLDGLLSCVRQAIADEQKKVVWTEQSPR
How it was run: as §1

Measured: Classification

5-HT 3A (serotonin receptor 3A) (Biotin-LAVLAYSITLVMLWSIWQYA)
2 (A450 nm 1-2): all assays above
